Test results reported in patent US8293494B2, “Tri-demethylation-capable protein complex, method of its preparation and its use” (Universitatsklinikum Freiburg, priority 2007, dated 2012).

System: H3K9 on core histones or nucleosomes from HeLa cells
Assay: In vitro demethylation assay
Type: biochemical
Conditions: 5 hours at 37° C., Western blot; for demethylation of trimethyl H3K9: core histones and nucleosomes from HeLa cells
Protocol: FIG. 2 JMJD2C interacts with chromatin and demethylates H3K9. LNCaP cells were incubated with or without the AR agonist R1881 (a, b), and transfected with stealth RNAi (b). ChIP or Re-ChIP was performed with the indicated antibodies. The precipitated chromatin was amplified by PCR using primers flanking the promoter region (ARE I+II) and the enhancer region (ARE III) of the PSA gene, the promoter region (ARE) of the KLK2 gene, or the promoters of the unrelated GAPDH and U6 genes. Western blot analysis (b, lower right panel) verified the specific siRNA-mediated knockdown of JMJD2C. c, Core histories or nucleosomes from HeLa cells were incubated with recombinant JMJD2C (aa 12-349) or mutant JMJD2C H190A (aa 12-349). Western blots were decorated with the indicated antibodies against α-mono-, α-di-, or α-trimethyl H3K9.
FIG. 6: The integrity of core histones and nucleosomes is maintained during the demethylation assay. Core histones or nucleosomes from HeLa cells were incubated with recombinant JMJD2C (aa 12-349) or mutant JMJD2C H190A (aa 12-349). Western blots were decorated with α-H3 antibody.
The demethylation assays were performed as described^4. His-tagged proteins were incubated for 5 hours at 37° C. in demethylation buffer containing 50 mM HEPES-KOH pH 8.0, 2 mM ascorbate, 100 μM Fe(NH4)2(SO4)2, 1 mM α-ketoglutarate with 1 μg of nucleosomes or core histones purified from HeLa cells^22. The reaction mixture was analysed by SDS-PAGE followed by Western blotting using antibodies as indicated.

B1: JMJD2C: Recombinantly expressed and purified His-tagged JMJD2C (aa 12-349), a JMJC domain-containing histone demethylase (protein, UniProt Q9H3R0 12-349, looked up, fragment)
chain: PSCKIMTFRPSMEEFREFNKYLAYMESKGAHRAGLAKVIPPKEWKPRQCYDDIDNLLIPAPIQQMVTGQSGLFTQYNIQKKAMTVKEFRQLANSGKYCTPRYLDYEDLERKYWKNLTFVAPIYGADINGSIYDEGVDEWNIARLNTVLDVVEEECGISIEGVNTPYLYFGMWKTTFAWHTEDMDLYSINYLHFGEPKSWYAIPPEHGKRLERLAQGFFPSSSQGCDAFLRHKMTLISPSVLKKYGIPFDKITQEAGEFMITFPYGYHAGFNHGFNCAESTNFATVRWIDYGKVAKLCTCRKDMVKISMDIFVRKFQPDRYQLWKQGKDIYTIDHTKPT
modifications: His-tag
notes: Recombinantly expressed and purified His-tagged JMJD2C (aa 12-349), a JMJC domain-containing histone demethylase
- methylation status of mono- and dimethyl H3K9: not altered
- demethylation of trimethyl H3K9: very efficiently demethylates

B2: JMJD2C H190A: enzymatically impaired mutant JMJD2C H190A (aa 12-349) (protein)
chain: PSCKIMTFRPSMEEFREFNKYLAYMESKGAHRAGLAKVIPPKEWKPRQCYDDIDNLLIPAPIQQMVTGQSGLFTQYNIQKKAMTVKEFRQLANSGKYCTPRYLDYEDLERKYWKNLTFVAPIYGADINGSIYDEGVDEWNIARLNTVLDVVEEECGISIEGVNTPYLYFGMWKTTFAWATEDMDLYSINYLHFGEPKSWYAIPPEHGKRLERLAQGFFPSSSQGCDAFLRHKMTLISPSVLKKYGIPFDKITQEAGEFMITFPYGYHAGFNHGFNCAESTNFATVRWIDYGKVAKLCTCRKDMVKISMDIFVRKFQPDRYQLWKQGKDIYTIDHTKPT
modifications: left off: small tags and cut ends
- demethylation of trimethyl H3K9: fails to demethylate
